For orientation: EC50 means the concentration giving half of the maximal effect. A high value points to lower potency in that assay.

Values joined by “and” are separate entries in the source; they are usually repeats but may differ in a detail not shown here. Equal values may be shown once.

This is an account of results in US20240201167A1 (ALBERT EINSTEIN COLLEGE OF MEDICINE, published 2024).

Assay [1] concerns the target T1, human B7-1 (CD80), full length, expressed on HEK 293 cells (Homo sapiens, UniProt P33681 35-280).
T1 construct: also called hB7-1; B7-1-mCherry
T1 sequence: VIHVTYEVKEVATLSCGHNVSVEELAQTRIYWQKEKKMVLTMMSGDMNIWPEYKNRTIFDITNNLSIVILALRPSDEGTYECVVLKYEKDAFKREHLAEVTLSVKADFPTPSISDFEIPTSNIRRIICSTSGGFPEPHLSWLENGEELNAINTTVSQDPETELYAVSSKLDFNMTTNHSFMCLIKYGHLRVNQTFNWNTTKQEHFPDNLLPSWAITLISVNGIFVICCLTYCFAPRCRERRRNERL
The experiment in a line: cell-cell screen, flow cytometry. Here is the method:
As illustrated, cells were transfected with expression cassettes expressing labeled receptors or labeled ligands, receptor-expressing cells were mixed with ligand-expressing cells and cell-to-cell binding was monitored by detecting the labels associated with the receptor and the ligand. […] Binding was detected using an anti-mIgG2A ab and flow cytometry. The binding curves were fit and the Bmax, EC50, and hill coefficient were calculated using the equation Y=Bmax*Xh/(Kdh+Xh).
On the technique in general: Flow cytometry measures light scatter and fluorescence of single cells or particles in a stream.

Assay [2] has as its target T2, human p75 neurotrophin receptor, full length, expressed on HEK 293 cells (Homo sapiens, UniProt P08138 29-427).
T2 construct: Full-length human p75 with a cytosolic fluorescent tag (GFP); also called p75NTR; NGFR
T2 sequence: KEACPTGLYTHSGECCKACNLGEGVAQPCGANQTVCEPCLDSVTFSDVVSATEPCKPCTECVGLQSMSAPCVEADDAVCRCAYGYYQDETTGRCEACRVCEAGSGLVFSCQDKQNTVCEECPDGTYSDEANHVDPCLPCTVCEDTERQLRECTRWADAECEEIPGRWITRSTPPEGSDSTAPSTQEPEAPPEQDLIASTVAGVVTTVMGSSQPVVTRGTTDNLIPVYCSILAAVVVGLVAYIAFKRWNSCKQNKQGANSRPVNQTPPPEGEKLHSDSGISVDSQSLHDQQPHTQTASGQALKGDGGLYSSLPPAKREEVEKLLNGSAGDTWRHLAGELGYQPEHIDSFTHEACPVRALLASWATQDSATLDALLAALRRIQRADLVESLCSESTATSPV
The experiment in a line: Fc fusion titrated on transfected cells, flow cytometry. Here is the method: (§1) Three days post transfection cells were counted and diluted to 1×10⁶ cells/mL in 1×PBS 0.2% BSA, pH 7.4. Premixed solutions containing a final concentration of 1 μM Fc-fusion protein and 1.5 μM Alexa 647 goat anti-mouse secondary antibody (ThermoFisher, A-21235) were incubated on ice for 30 min. Subsequently, increasing amounts of the premixed solution was added to wells of a 96-well plate and the volume adjusted to 50 μL with 1×PBS and 100 μL of diluted cells (100,000 cells total) added to the wells. Binding was performed at room temperature for 1 hour, the cells washed 2× with 1×PBS 0.2% BSA by centrifugation and subsequently analyzed by Flow Cytometry on a SONY Spectral Analyzer (SA 3800). Gated live cells were sub-gated for GFP, and GFP-positive cells sub-gated for Alexa-647.

The target in assay [3] is T3, human CD28 expressed on HEK 293 cells (human, UniProt P10747 19-220).
T3 construct: whole, on cells; also called CD28-GFP
Nature of the assay: Fc fusion titrated on CD28-expressing cells, flow cytometry. Here is the method: as §1

Assay [4] deals with T4, human CTLA-4 expressed on HEK 293 cells (human, UniProt P16410 36-223).
T4 construct: whole, on cells; also called CTLA-4-GFP
T4 sequence (P16410 36-223): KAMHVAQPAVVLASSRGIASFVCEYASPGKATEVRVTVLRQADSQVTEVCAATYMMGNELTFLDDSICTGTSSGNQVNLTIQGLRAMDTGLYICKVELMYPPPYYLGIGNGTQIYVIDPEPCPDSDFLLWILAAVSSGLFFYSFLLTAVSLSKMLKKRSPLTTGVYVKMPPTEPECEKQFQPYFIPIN
The experiment in a line: Fc fusion titrated on CTLA-4-expressing cells, flow cytometry. On the procedure:
as §1

The target in assay [5] is T5, rat p75NTR expressed on cells (rat, UniProt P07174 30-425).
T5 construct: whole, on cells; also called rat p75NTR-GFP; rodent p75NTR
T5 sequence (looked up): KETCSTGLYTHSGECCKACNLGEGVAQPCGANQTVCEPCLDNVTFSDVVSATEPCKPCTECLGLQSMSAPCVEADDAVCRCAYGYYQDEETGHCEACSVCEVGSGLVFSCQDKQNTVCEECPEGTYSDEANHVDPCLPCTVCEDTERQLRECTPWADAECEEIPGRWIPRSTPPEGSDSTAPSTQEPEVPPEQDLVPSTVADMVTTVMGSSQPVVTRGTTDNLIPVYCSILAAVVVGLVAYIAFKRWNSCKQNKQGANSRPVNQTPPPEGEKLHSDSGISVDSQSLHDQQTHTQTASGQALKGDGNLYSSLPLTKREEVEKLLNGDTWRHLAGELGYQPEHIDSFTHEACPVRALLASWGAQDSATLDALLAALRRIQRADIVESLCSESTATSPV
Nature of the assay: cell-cell binding, flow cytometry.

The target of assay [6] is T2, human p75 neurotrophin receptor, full …. The experiment in a line: cell-cell binding, flow cytometry.
A further assay concerns the target T6, mouse p75NTR (mouse, UniProt Q9Z0W1 32-427).
T6 construct: whole, on cells; also called mouse p75NTR-GFP; murine p75
T6 sequence (looked up): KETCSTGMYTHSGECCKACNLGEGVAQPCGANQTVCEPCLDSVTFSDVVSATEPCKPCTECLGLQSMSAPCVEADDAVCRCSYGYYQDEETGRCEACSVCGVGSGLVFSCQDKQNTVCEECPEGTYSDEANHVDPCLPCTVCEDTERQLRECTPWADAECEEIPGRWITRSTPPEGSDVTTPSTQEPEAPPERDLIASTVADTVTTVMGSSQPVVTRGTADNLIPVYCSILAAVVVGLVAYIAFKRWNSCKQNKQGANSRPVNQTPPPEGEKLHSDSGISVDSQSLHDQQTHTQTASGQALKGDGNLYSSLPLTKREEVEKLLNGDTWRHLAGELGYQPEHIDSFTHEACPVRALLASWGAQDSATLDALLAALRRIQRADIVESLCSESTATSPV
Nature of the assay: cell-cell binding, flow cytometry.

B1: HVEM expressed on cells (receptor, human, UniProt Q92956 39-283, looked up)
chain: LPSCKEDEYPVGSECCPKCSPGYRVKEACGELTGTVCEPCPPGTYIAHLNGLSKCLQCQMCDPAMGLRASRNCSRTENAVCGCSPGHFCIVQDGDHCAACRAYATSSPGQRVQKGGTESQDTLCQNCPPGTFSPNGTLEECQHQTKCSWLVTKAGAGTSSSHWVWWFLSGSLVIVIVCSTVGLIICVKRRKPRGDVVKVIVSVQRKRQEAEGEATVIEALQAPPDVTTVAVEETIPSFTGRSPNH
notes: whole, on cells
For B1, the binding result in assay [1] was “no binding”.

B2: B7-1N82E-Fc (Fc fusion)
chain: VIHVTYEVKEVATLSCGHNVSVEELAQTRIYWQKEKKMVLTMMSGDMEIWPEYKNRTIFDITNNLSIVILALRPSDEGTYECVVLKYEKDAFKREHLAEVTLSVKADFPTPSISDFEIPTSNIRRIICSTSGGFPEPHLSWLENGEELNAINTTVSQDPETELYAVSSKLDFNMTTNHSFMCLIKYGHLRVNQTFNWNT
notes: also called recombinant mutant B7-1 N82E; B7-1 N82E Fc fusion protein; not shown: C-terminal deca-His-tagged Fc domain (mIgG2a-His10 or hIgG1-His10)
For the molecule B2, the binding result in assay [2] was “no binding”. Further, the EC50 in assay [3] was ~9 nM and ~10 nM; in assay [4], ~9 nM and ~10 nM.

B3: mouse B7-1 expressed on cells (ligand)
chain: VDEQLSKSVKDKVLLPCRYNSPHEDESEDRIYWQKHDKVVLSVIAGKLKVWPEYKNRTLYDNTTYSLIILGLVLSDRGTYSCVVQKKERGTYEVKHLALVKLSIKADFSTPNITESGNPSADTKRITCFASGGFPKPRFSWLENGRELPGINTTISQDPESELYTISSQLDFNTTRNHTIKCLIKYGDAHVSEDFTWEKPPEDPPDSKNTLVLFGAGFGAVITVVVIVVIIKCFCKHRSCFRRNEASRETNNSLTFGPEEALAEQTVFL
notes: Cytosolic mCherry tag; also called mouse B7-1-mCherry; rodent B7-1
B3: the binding result (in assay [5]; in assay [6]; in the assay with mouse p75NTR) was “no binding” throughout.
